In EP4592321A1 (Biotheus Inc., dated 2025):

How the values were obtained:
[1] = target: T1, HER2 expressed on human gastric cancer cell N87 (human, UniProt P04626 23-1255); test: flow cytometry on N87 cells, MFI, anti-human IgG-Fc PE
T1 construct: whole, on cells; N87 cells are described as self-expressing HER2; also called human HER2 on N87 cells; HER2 antigen on N87

[2] = target: T2, human HER2 antigen (purchased from AcroBiosystems) (human, UniProt P04626 23-652); test: BLI (ForteBio), antibody on AHQ sensor, 100 nM HER2, 1:1 model
T2 construct: Bought soluble antigen used at 100 nM in BLI; also called human HER2 protein; HER2 protein

[3] = target: T2, human HER2 antigen (purchased from …); test: BLI (ForteBio), antibody before and after 2 and 4 weeks at 40 C on AHQ sensor, 100 nM human HER2

Binder | binding result [1] | binding result [2] | binding result [3]
Anti-HER2(NO3-02) (antibody, human IgG1, kappa, V domains shown, also called optimized Anti-HER2 antibody) VH: not shown VL: DIQMTQSPSSLSASVGDRVTITCRASQNVQGAVAWYQQKPGKAPKLLIYSASFLYSGVPSRFSGSRSGTDFTLTISSLQPEDFATYYCQQHYSTPPTFGQGTKVEIKR | binds | binds | 
Anti-HER2(NO3-36) (antibody, human IgG1, kappa, V domains shown, also called optimized Anti-HER2 antibody) VH: not shown VL: DIQMTQSPSSLSASVGDRVTITCRASNYVQTAVAWYQQKPGKAPKLLIYSASFLYSGVPSRFSGSRSGTDFTLTISSLQPEDFATYYCQQHFMTPPTFGQGTKVEIKR | binds | binds | 
Anti-HER2(NO3-46) (antibody, human IgG1, kappa, V domains shown, also called optimized Anti-HER2 antibody) VH: not shown VL: DIQMTQSPSSLSASVGDRVTITCRASQSVQGAVAWYQQKPGKAPKLLIYSASFLYSGVPSRFSGSRSGTDFTLTISSLQPEDFATYYCQQHSTTPPTFGQGTKVEIKR | binds |  | binds
Anti-HER2(NO3-02)_single arm (antibody, human IgG1, kappa, also called Anti-HER2 single-arm antibody) heavy: not shown light: DIQMTQSPSSLSASVGDRVTITCRASQNVQGAVAWYQQKPGKAPKLLIYSASFLYSGVPSRFSGSRSGTDFTLTISSLQPEDFATYYCQQHYSTPPTFGQGTKVEIKRTVAAPSVFIFPPSDEQLKSGTASVVCLLNNFYPREAKVQWKVDNALQSGNSQESVTEQDSKDSTYSLSSTLTLSKADYEKHKVYACEVTHQGLSSPVTKSFNRGEC not shown | binds | binds | 
Anti-HER2(NO3-46)_single arm (antibody, human IgG1, kappa, also called Anti-HER2 single-arm antibody) heavy: not shown light: DIQMTQSPSSLSASVGDRVTITCRASQSVQGAVAWYQQKPGKAPKLLIYSASFLYSGVPSRFSGSRSGTDFTLTISSLQPEDFATYYCQQHSTTPPTFGQGTKVEIKRTVAAPSVFIFPPSDEQLKSGTASVVCLLNNFYPREAKVQWKVDNALQSGNSQESVTEQDSKDSTYSLSSTLTLSKADYEKHKVYACEVTHQGLSSPVTKSFNRGEC not shown | binds | binds | 
Anti-HER2(NO3-36)_single arm (antibody, human IgG1, kappa, also called Anti-HER2 single-arm antibody) heavy: not shown light: DIQMTQSPSSLSASVGDRVTITCRASNYVQTAVAWYQQKPGKAPKLLIYSASFLYSGVPSRFSGSRSGTDFTLTISSLQPEDFATYYCQQHFMTPPTFGQGTKVEIKRTVAAPSVFIFPPSDEQLKSGTASVVCLLNNFYPREAKVQWKVDNALQSGNSQESVTEQDSKDSTYSLSSTLTLSKADYEKHKVYACEVTHQGLSSPVTKSFNRGEC not shown | binds | binds | 
